Laboratory results published in patent US20180186853A1 (HANMI PHARM, published 2018).
Positions of bridges follow the written chain, without caps; N, C: chain ends. Non-standard residues stand in square brackets, D forms with d. No end group written: not given here. Aib = CC(C)(N)C(=O)O

Target: human glucagon receptor (human, UniProt P47871 26-477)
Assay: cell-based or functional assay

Sequence of human glucagon receptor (P47871 26-477): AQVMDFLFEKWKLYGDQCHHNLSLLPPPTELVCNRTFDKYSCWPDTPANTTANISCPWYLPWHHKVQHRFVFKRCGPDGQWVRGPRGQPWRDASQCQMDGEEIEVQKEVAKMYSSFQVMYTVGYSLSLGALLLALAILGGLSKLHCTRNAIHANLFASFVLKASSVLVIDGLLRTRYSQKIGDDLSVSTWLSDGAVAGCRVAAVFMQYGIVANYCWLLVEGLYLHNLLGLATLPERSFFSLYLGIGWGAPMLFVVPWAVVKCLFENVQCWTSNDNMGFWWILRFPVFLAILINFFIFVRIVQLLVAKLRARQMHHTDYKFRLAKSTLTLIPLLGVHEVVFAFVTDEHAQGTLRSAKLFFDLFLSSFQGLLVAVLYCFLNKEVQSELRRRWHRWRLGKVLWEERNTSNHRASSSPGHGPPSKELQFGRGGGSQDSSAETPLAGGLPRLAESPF

Row | In vitro Activity (Relative Activity of SEQ ID NO: 1, %), from cAMP EC50 | Binder
1 | 75.4% | YXQGTFTSDYSKYLDSRRAQDFVQWLMNTC (X at position 2 = aminoisobutyric acid (Aib)) [glucagon derivative of SEQ ID NO: 44]
2 | 6.1% | HSQGTFTSDYSKYLDCERAQDFVQWLMNT [glucagon derivative of SEQ ID NO: 3]
3 | 5.2% | Y[Aib]QGTFTSDYSCYLDSRRAQDFVQWLMNT [glucagon derivative of SEQ ID NO: 13]
4 | 9.9% | Y[Aib]QGTFTSDCSKYLDERRAKEFVQWLMNT (bridge 16-20; also: ring between positions 16 and 20, kind not given here) [glucagon derivative of SEQ ID NO: 36]
5 | 1% | W[Aib]QGTFTSDYSKYLDECRAKDFVQWLMNT (bridge 16-20; also: ring between positions 16 and 20, kind not given here) [glucagon derivative of SEQ ID NO: 26]
6 | 1.6% | Y[Aib]QGTFTSDCSKYLDSRRAQDFVQWLMNT [glucagon derivative of SEQ ID NO: 43]
7 | 56.3% | Y[Aib]QGTFTSDYSKYLDEKRAKEFVQWLMNTC (bridge 16-20; also: ring between positions 16 and 20, kind not given here) [glucagon derivative of SEQ ID NO: 12]
8 | 1.1% | Y[Aib]QGTFTSDYSKYLCEKRAQDFVVWLMNT [glucagon derivative of SEQ ID NO: 15]
9 | 45.2% | Y[Aib]QGTFCSDYSKYLDERRAKDFVQWLMNT (bridge 16-20; also: ring between positions 16 and 20, kind not given here) [glucagon derivative of SEQ ID NO: 41]
10 | 40.8% | Y[Aib]QGTFVSDYSKYLDERRAKDFVQWLMNTC (bridge 16-20; also: ring between positions 16 and 20, kind not given here) [glucagon derivative of SEQ ID NO: 40]
11 | 57.8% | Y[Aib]QGTFTSDYSKYLDEKCAKEFVQWLMNT (bridge 16-20; also: ring between positions 16 and 20, kind not given here) [glucagon derivative of SEQ ID NO: 21]
12 | < 0.1% | Y[Aib]QGTFTSDYSKYLDSRRACDFRLWLMNT [glucagon derivative of SEQ ID NO: 18]
13 | < 0.1% | Y[Aib]QGTFTSDYSKYLDSCDAQDFVVWLINT [glucagon derivative of SEQ ID NO: 9]
14 | 3.7% | Y[Aib]QGTFVSDCSKYLDERRAKDFVQWLMNT (bridge 16-20; also: ring between positions 16 and 20, kind not given here) [glucagon derivative of SEQ ID NO: 39]
15 | 6.3% | Y[Aib]QGTFTSDYSKYLDCKRAKEFVQWLMNT (bridge 17-21; also: ring between positions 17 and 21, kind not given here) [glucagon derivative of SEQ ID NO: 31]
16 | 18.1% | Y[Aib]QGTFTSDYSKYLDCKRAKEFVQWLMNT (not fully specified (bridges)) [glucagon derivative of SEQ ID NO: 14]
17 | < 0.1% | W[Aib]QGTFVSDYSKYLDECRAKDFVQWLMNT (bridge 16-20; also: ring between positions 16 and 20, kind not given here) [glucagon derivative of SEQ ID NO: 28]
18 | 61.3% | Y[Aib]QGTFTSDYSKCLDERRAKDFVQWLMNT (bridge 16-20; also: ring between positions 16 and 20, kind not given here) [glucagon derivative of SEQ ID NO: 29]
19 | 226% | Y[Aib]QGTFTSDYSKYLDERRAKEFVQWLMNTC (bridge 16-20; also: ring between positions 16 and 20, kind not given here) [glucagon derivative of SEQ ID NO: 37]
20 | 108% | YXQGTFTSDYSKYLDSRRAQDFVQWLMNT (X at position 2 = aminoisobutyric acid (Aib)) [glucagon derivative of SEQ ID NO: 33]

Row | In vitro Activity (Relative Activity of SEQ ID NO: 1, %), from cAMP EC50 | Binder
21 | 37.9% | Y[Aib]QGTFCSDYSKYLDSRRAQDFVQWLMNT [glucagon derivative of SEQ ID NO: 42]
22 | 12.1% | Y[Aib]QGTFTSDYSKYLCEKRAKEFVQWLMNT (bridge 16-20; also: ring between positions 16 and 20, kind not given here) [glucagon derivative of SEQ ID NO: 19]
23 | 4.6% | Y[Aib]QGTFTSDYSKYLDEKCAKEFVQWLMNT (not fully specified (bridges)) [glucagon derivative of SEQ ID NO: 11]
24 | < 0.1% | HSQGTFTSDYSKYLDSCDAQDFVQWLMNT [glucagon derivative of SEQ ID NO: 4]
25 | 167% | Y[Aib]QGTFCSDYSKYLDERRAKEFVQWLMNT (bridge 16-20; also: ring between positions 16 and 20, kind not given here) [glucagon derivative of SEQ ID NO: 38]
26 | 0.3% | HSQGTFTSDYSKYLDSCEAQDFVQWLMNT [glucagon derivative of SEQ ID NO: 5]
27 | 58% | Y[Aib]QGTFTSDYSKCLDEKRAKEFVQWLMNT (bridge 16-20; also: ring between positions 16 and 20, kind not given here) [glucagon derivative of SEQ ID NO: 24]
28 | 148% | Y[Aib]QGTFTSDYSKYLDEKRCKEFVQWLMNT (bridge 16-20; also: ring between positions 16 and 20, kind not given here) [glucagon derivative of SEQ ID NO: 22]
29 | 0.7% | SQGTFTSDYSKYLDECRAKEFVQWLMNT (lactam 15-19) [glucagon derivative of SEQ ID NO: 32]
30 | 93.6% | Y[Aib]QGTFVSDYSKYLDECRAKDFVQWLMNT (bridge 16-20; also: ring between positions 16 and 20, kind not given here) [glucagon derivative of SEQ ID NO: 27]
31 | 0.3% | W[Aib]QGTFTSDYSKCLDERRAKDFVQWLMNT (bridge 16-20; also: ring between positions 16 and 20, kind not given here) [glucagon derivative of SEQ ID NO: 30]
32 | 46.9% | Y[Aib]QGTFTSDYSKYLDEKRAKCFVQWLMNT (bridge 16-20; also: ring between positions 16 and 20, kind not given here) [glucagon derivative of SEQ ID NO: 25]
33 | 23.2% | Y[Aib]QGTFTSDYSKYLDCVRAQDFVQWLMRT [glucagon derivative of SEQ ID NO: 17]
34 | 4.2% | Y[Aib]QGTFTSDYSKYLDCRRAQVFVQWLMRT [glucagon derivative of SEQ ID NO: 16]
35 | 0.2% | W[Aib]QGTFTSDYSKYCDERRAKEFVQWLMNT (bridge 16-20; also: ring between positions 16 and 20, kind not given here) [glucagon derivative of SEQ ID NO: 34]
36 | 17.7% | Y[Aib]QGTFTSDYSKYCDERRAKEFVQWLMNT (bridge 16-20; also: ring between positions 16 and 20, kind not given here) [glucagon derivative of SEQ ID NO: 35]
37 | 76.8% | Y[Aib]QGTFTSDYSKYCDEKRAKEFVQWLMNT (bridge 16-20; also: ring between positions 16 and 20, kind not given here) [glucagon derivative of SEQ ID NO: 23]
38 | 0.6% | HSQGTFTSDYSKYLDCDRAQDFVQWLMNT [glucagon derivative of SEQ ID NO: 2]
39 | 300% | Y[Aib]QGTFTSDYSKYLDECRAKEFVQWLMNT (bridge 16-20; also: ring between positions 16 and 20, kind not given here) [glucagon derivative of SEQ ID NO: 20]
40 | < 0.1% | Y[Aib]QGTFTSDYSKYLDSCDADDFVVWLINT [glucagon derivative of SEQ ID NO: 10]
